# Experimental data published in IntAct's records for PubMed 19182799.
# B1: Mitochondrial intermembrane space import and assembly protein 40 (Saccharomyces cerevisiae), P36046 (parent)
# chain: MLRNLVVRNACRNRPSIQVARGLCRHQTRRLMASSPQFGRNSNQEKTAGFIMGILSMAGALYFIAPNRKPLFASRKVESDKTAEEELSSGGEQSPENEDDNNSKSDENGDDNDSKNDETEAGPQLGGDKIGASKVAEDGELVVLAEEDNKSSEDKDTDESKVSTKDDEQSNEDNATANNQKDENISSENSEENTSDKTLDNNAGSSEKKDPEHSDDEKSQQGQSDDKTTTEDNNGEEESSKKTVSDSENSAKQSESSDEEKEELRKQEEKQMGPTEEEVQHEGAYNPDTGEINWDCPCLGGMAHGPCGEEFKSAFSCFVYSEAEPKGIDCVEKFQHMQDCFRKYPEHYAEQLKETSDDEEPQDKVKVNTIESAPNVSSAKENAAKKAEQSDVKKEPLNEESKP
# partner: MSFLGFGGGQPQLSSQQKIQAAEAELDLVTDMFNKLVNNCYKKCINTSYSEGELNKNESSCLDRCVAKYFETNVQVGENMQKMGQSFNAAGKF
# B2: Mitochondrial intermembrane space import and assembly protein 40 (Saccharomyces cerevisiae), P36046 (parent)
# chain: B1 chain
# partner: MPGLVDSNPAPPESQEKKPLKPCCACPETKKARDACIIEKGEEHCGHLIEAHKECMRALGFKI
# Variants of: B1
# Details: with tim10_yeast TIM10, P87108
row,Variant,effect of a mutation on the interaction
1,MLRNLVVRNACRNRPSIQVARGLCRHQTRRLMASSPQFGRNSNQEKTAGFIMGILSMAGALYFIAPNRKPLFASRKVESDKTAEEELSSGGEQSPENEDDNNSKSDENGDDNDSKNDETEAGPQLGGDKIGASKVAEDGELVVLAEEDNKSSEDKDTDESKVSTKDDEQSNEDNATANNQKDENISSENSEENTSDKTLDNNAGSSEKKDPEHSDDEKSQQGQSDDKTTTEDNNGEEESSKKTVSDSENSAKQSESSDEEKEELRKQEEKQMGPTEEEVQHEGAYNPDTGEINWDCPSLGGMAHGPCGEEFKSAFSCFVYSEAEPKGIDCVEKFQHMQDCFRKYPEHYAEQLKETSDDEEPQDKVKVNTIESAPNVSSAKENAAKKAEQSDVKKEPLNEESKP [C298S],decreasing interaction
2,MLRNLVVRNACRNRPSIQVARGLCRHQTRRLMASSPQFGRNSNQEKTAGFIMGILSMAGALYFIAPNRKPLFASRKVESDKTAEEELSSGGEQSPENEDDNNSKSDENGDDNDSKNDETEAGPQLGGDKIGASKVAEDGELVVLAEEDNKSSEDKDTDESKVSTKDDEQSNEDNATANNQKDENISSENSEENTSDKTLDNNAGSSEKKDPEHSDDEKSQQGQSDDKTTTEDNNGEEESSKKTVSDSENSAKQSESSDEEKEELRKQEEKQMGPTEEEVQHEGAYNPDTGEINWDSPSLGGMAHGPCGEEFKSAFSCFVYSEAEPKGIDCVEKFQHMQDCFRKYPEHYAEQLKETSDDEEPQDKVKVNTIESAPNVSSAKENAAKKAEQSDVKKEPLNEESKP [C296S;C298S],disrupting interaction

# Variants of: B2
# Details: with cox17_human COX17, Q14061
row,Variant,effect of a mutation on the interaction
1,MLRNLVVRNACRNRPSIQVARGLCRHQTRRLMASSPQFGRNSNQEKTAGFIMGILSMAGALYFIAPNRKPLFASRKVESDKTAEEELSSGGEQSPENEDDNNSKSDENGDDNDSKNDETEAGPQLGGDKIGASKVAEDGELVVLAEEDNKSSEDKDTDESKVSTKDDEQSNEDNATANNQKDENISSENSEENTSDKTLDNNAGSSEKKDPEHSDDEKSQQGQSDDKTTTEDNNGEEESSKKTVSDSENSAKQSESSDEEKEELRKQEEKQMGPTEEEVQHEGAYNPDTGEINWDSPSLGGMAHGPCGEEFKSAFSCFVYSEAEPKGIDCVEKFQHMQDCFRKYPEHYAEQLKETSDDEEPQDKVKVNTIESAPNVSSAKENAAKKAEQSDVKKEPLNEESKP [C296S;C298S],disrupting interaction
2,MLRNLVVRNACRNRPSIQVARGLCRHQTRRLMASSPQFGRNSNQEKTAGFIMGILSMAGALYFIAPNRKPLFASRKVESDKTAEEELSSGGEQSPENEDDNNSKSDENGDDNDSKNDETEAGPQLGGDKIGASKVAEDGELVVLAEEDNKSSEDKDTDESKVSTKDDEQSNEDNATANNQKDENISSENSEENTSDKTLDNNAGSSEKKDPEHSDDEKSQQGQSDDKTTTEDNNGEEESSKKTVSDSENSAKQSESSDEEKEELRKQEEKQMGPTEEEVQHEGAYNPDTGEINWDCPSLGGMAHGPCGEEFKSAFSCFVYSEAEPKGIDCVEKFQHMQDCFRKYPEHYAEQLKETSDDEEPQDKVKVNTIESAPNVSSAKENAAKKAEQSDVKKEPLNEESKP [C298S],decreasing interaction
